Assay results reported in patent US20220017573A1.

Tests used:
[1] = target: ScuR-StrepTag (Streptococcus salivarius HSISS4); test: EMSA: Cy3 PsptA probe, constant ScuR-StrepTag, decreasing sBI7; peptide-dependent ternary complex
[2] = target: ScuR/SarF system; test: cell-based or functional assay

LPFWLILG [sBI7]
lowest peptide concentration at which ScuR shifts the PsptA probe [1]: 0.08 nM
peptide concentration to which the PsptA, PslvX and PcomS luxAB reporters respond in WT background [2]: < 1 nM
